According to US20200261490:

B1: human ADAM-10 (protein)
chain: TTSAEKNTCQLYIQTDHLFFKYYGTREAVIAQISSHVKAIDTIYQTTDFSGIRNISFMVKRIRINTTADEKDPTNPFRFPNIGVEKFLELNSEQNHDDYCLAYVFTDRDFDDGVLGLAWVGAPSGSSGGICEKSKLYSDGKKKSLNTGIITVQNYGSHVPPKVSHITFAHEVGHNFGSPHDSGTECTPGESKNLGQKENGNYIMYARATSGDKLNNNKFSLCSIRNISQVLEKKRNNCFVESGQPICGNGMVEQGEECDCGYSDQCKDECCFDANQPEGRKCKLKPGKQCSPSQGPCCTAQCAFKSKSEKCRDDSDCAREGICNGFTALCPASDPKPNFTDCNRHTQVCINGQCAGSICEKYGLEECTCASSDGKDDKELCHVCCMKKMDPSTCASTGSVQWSRHFSGRTITLQPGSPCNDFRGYCDVFMRCRLVDADGPLARLKKAIFSPELYENIAE
B2: human matriptase (protein)
chain: VVGGTDADEGEWPWQVSLHALGQGHICGASLISPNWLVSAAHCYIDDRGFRYSDPTQWTAFLGLHDQSQRSAPGVQERRLKRIISHPFFNDFTFDYDIALLELEKPAEYSSMVRPICLPDASHVFPAGKAIWVTGWGHTQYGGTGALILQKGEIRVINQTTCENLLPQQITPRMMCVGFLSGGVDSCQGDSGGPLSSVEADGRIFQAGVVSWGDGCAQRNKPGVYTRLPLFRDWIKENTGV
B3: human matrix metalloproteinase-2 (protein)
chain: APSPIIKFPGDVAPKTDKELAVQYLNTFYGCPKESCNLFVLKDTLKKMQKFFGLPQTGDLDQNTIETMRKPRCGNPDVANYNFFPRKPKWDKNQITYRIIGYTPDLDPETVDDAFARAFQVWSDVTPLRFSRIHDGEADIMINFGRWEHGDGYPFDGKDGLLAHAFAPGTGVGGDSHFDDDELWTLGEGQVVRVKYGNADGEYCKFPFLFNGKEYNSCTDTGRSDGFLWCSTTYNFEKDGKYGFCPHEALFTMGGNAEGQPCKFPFRFQGTSYDSCTTEGRTDGYRWCGTTEDYDRDKKYGFCPETAMSTVGGNSEGAPCVFPFTFLGNKYESCTSAGRSDGKMWCATTANYDDDRKWGFCPDQGYSLFLVAAHEFGHAMGLEHSQDPGALMAPIYTYTKNFRLSQDDIKGIQELYGASPDIDLGTGPTPTLGPVTPEICKQDIVFDGIAQIRGEIFFFKDRFIWRTVTPRDKPMGPLLVATFWPELPEKIDAVYEAPQEEKAVFFAGNEYWIYSASTLERGYPKPLTSLGLPPDVQRVDAAFNWSKNKKTYIFAGDKFWRYNEVKKKMDPGFPKLIADAWNAIPDNLDAVVDLQGGGHSYFFKGAYYLKLENQSLKSVKFGSIKSDWLGC

What was measured:
[1] = target: recombinant human stanniocalcin 1, C-terminally myc-his-tagged
[2] = target: recombinant human stanniocalcin 2, C-terminally myc-his-tagged

Protein	cleavage of 125I-IGFBP-5 by the proteinase with a 10-fold molar excess of STC [1]	cleavage of 125I-IGFBP-5 by the proteinase with a 10-fold molar excess of STC, 8 h preincubation [2]
B1	None of the proteinases tested was inhibited by STC1, or by STC2 following incubation	None of the proteinases tested was inhibited by STC1, or by STC2 following incubation
B2	None of the proteinases tested was inhibited by STC1, or by STC2 following incubation	None of the proteinases tested was inhibited by STC1, or by STC2 following incubation
B3	None of the proteinases tested was inhibited by STC1, or by STC2 following incubation	None of the proteinases tested was inhibited by STC1, or by STC2 following incubation
